We go through eleven molecules from patent US20210130452A1 (Merck KGaA, published 2021).

Assay [1] has as its target T1, rat IL-17A (rat, UniProt Q61453 18-150, limits assumed).
T1 construct: made in E. coli, bought
T1 sequence (looked up): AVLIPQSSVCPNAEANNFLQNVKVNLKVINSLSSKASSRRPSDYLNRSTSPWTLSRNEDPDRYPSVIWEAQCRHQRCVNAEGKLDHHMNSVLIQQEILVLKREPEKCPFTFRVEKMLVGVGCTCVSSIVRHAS
The assay can be described thus: binding ELISA. For orientation: ELISA stands for enzyme-linked immunosorbent assay.
Method: (§1) Binding of a selected panel of anti-IL-17 Nanobodies to IL-17 of other species was assessed using a binding ELISA. […] HRP (horseradish peroxidase) conjugated anti-myc (Serotec, MCA 2200P) was used for detection using esTMB as substrate.

The target of assay [2] is T2, mouse IL-17A (mouse, UniProt Q62386 26-158).
T2 sequence (looked up): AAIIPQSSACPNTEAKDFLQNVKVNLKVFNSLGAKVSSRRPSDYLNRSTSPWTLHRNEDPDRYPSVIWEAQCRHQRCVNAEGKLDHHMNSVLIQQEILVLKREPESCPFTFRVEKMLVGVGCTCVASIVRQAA
The experiment in a line: binding ELISA.
Method: as §1

For assay [3], the target named is T3, human IL-17E (human, UniProt Q9H293 33-177).
T3 construct: expressed in E. coli; also called hIL-17E
T3 sequence (looked up): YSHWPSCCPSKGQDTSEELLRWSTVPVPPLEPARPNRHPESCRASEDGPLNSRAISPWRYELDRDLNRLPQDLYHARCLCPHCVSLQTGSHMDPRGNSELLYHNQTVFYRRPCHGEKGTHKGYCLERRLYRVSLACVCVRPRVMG
The assay can be described thus: SPR, cytokine on chip.
From the text: (§2) Human IL-17B, IL-17C, IL-17D or IL-17E were all expressed in E. coli, and covalently bound to a CM sensor chip surface via amine coupling using EDC/NHS for activation and HCl for deactivation.
(§3) Next, binding buffer was sent over the chip at the same flow rate to allow spontaneous dissociation of bound Nanobody or antibody.

In assay [4] the target is T4, human IL-17C (human, UniProt Q9P0M4 19-197).
T4 construct: expressed in E. coli; also called hIL-17C
T4 sequence (looked up): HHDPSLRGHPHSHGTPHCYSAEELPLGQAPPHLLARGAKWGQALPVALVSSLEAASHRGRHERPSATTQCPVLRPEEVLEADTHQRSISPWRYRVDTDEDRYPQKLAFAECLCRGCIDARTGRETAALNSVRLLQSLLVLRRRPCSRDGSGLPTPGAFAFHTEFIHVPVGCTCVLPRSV
The assay can be described thus: SPR, cytokine on chip. On the technique in general: Surface plasmon resonance follows binding to a sensor surface in real time, without labels.
From the text: as §2, §3

Assay [5] addresses T5, human IL-17B (human, UniProt Q9UHF5 21-180).
T5 construct: expressed in E. coli; also called hIL-17B
T5 sequence (looked up): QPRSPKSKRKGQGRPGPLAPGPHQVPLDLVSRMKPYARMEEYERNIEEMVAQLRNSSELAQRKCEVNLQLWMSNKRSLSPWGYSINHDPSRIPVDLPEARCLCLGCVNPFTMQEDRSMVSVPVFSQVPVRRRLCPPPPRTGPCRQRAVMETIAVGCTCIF
The assay can be described thus: SPR, cytokine on chip.
From the text: as §2, §3

Assay [6] deals with T6, human IL-17D (human, UniProt Q8TAD2 18-202, limits assumed).
T6 construct: expressed in E. coli; also called hIL-17D
T6 sequence (looked up): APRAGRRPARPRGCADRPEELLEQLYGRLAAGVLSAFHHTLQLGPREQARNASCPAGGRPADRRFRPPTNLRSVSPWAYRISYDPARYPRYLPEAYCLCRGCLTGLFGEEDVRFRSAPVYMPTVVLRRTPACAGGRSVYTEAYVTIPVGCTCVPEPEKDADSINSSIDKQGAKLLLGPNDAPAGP
The experiment in a line: SPR, cytokine on chip.
From the text: as §2, §3

The target in assay [7] is T7, human IL-17F (human, UniProt Q96PD4 31-163).
T7 construct: made in Hek293 cells (GenBank AF384857); also called hIL-17F; hIL17F
T7 sequence: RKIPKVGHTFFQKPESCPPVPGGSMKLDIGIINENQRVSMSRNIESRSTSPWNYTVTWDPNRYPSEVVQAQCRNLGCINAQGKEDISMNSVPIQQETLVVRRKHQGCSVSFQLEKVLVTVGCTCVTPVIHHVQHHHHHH
The assay can be described thus: AlphaScreen hIL-17F-IL-17RC; vs IL17MS13E02. Background: Bead proximity is the source of the signal in Alpha formats.

Assay [8] addresses T7, human IL-17F. The experiment in a line: SPR (Biacore) off-rate.
The target in assay [9] is T8, human IL-17A (human, UniProt Q16552 24-155).
T8 construct: secreted form made in Hek293 cells (GenBank U32659); also called hIL-17A; hIL17A
T8 sequence (Q16552 other isoform, or with tags, fused parts or gaps): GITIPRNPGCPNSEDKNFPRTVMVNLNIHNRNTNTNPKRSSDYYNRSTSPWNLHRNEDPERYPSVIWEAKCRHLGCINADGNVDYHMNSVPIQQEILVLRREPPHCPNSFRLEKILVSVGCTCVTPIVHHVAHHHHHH
The assay can be described thus: SPR (Biacore) off-rate.

Assay [10] concerns the target T9, human IL-17A/F heterodimer (human, UniProt Q16552 24-155; Q96PD4 31-163, limits assumed).
T9 construct: bought, made in E. coli (R&D Systems 5194-IL/CF); also called hIL-17A/F; hIL17A/F
The experiment in a line: SPR (Biacore) off-rate.

For assay [11], the target named is T10, rat IL-17F (rat, UniProt Q5BJ95 29-161).
T10 sequence (looked up): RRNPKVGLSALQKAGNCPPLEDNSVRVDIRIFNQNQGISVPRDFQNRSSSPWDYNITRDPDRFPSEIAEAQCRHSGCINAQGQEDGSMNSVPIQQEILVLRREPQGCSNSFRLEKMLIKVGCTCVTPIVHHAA
The experiment in a line: binding ELISA.
Method: as §1

Assay [12] concerns the target T11, mouse IL-17F (mouse, UniProt Q7TNI7 29-161).
T11 sequence (looked up): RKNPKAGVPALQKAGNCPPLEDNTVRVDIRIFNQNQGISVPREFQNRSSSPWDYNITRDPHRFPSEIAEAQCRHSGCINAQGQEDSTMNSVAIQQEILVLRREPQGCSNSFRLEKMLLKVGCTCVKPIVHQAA
The experiment in a line: binding ELISA.
Method: as §1

T9 sequence (Q16552 24-155 limits assumed, chain 1 of 2, one chain of several): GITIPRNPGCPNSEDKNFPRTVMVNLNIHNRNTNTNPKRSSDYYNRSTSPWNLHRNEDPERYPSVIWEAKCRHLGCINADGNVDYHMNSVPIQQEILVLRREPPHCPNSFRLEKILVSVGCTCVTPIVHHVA

B1: 04G01 (VHH)
VHH: EVQLVESGGGLVQAGGSQRLSCTASGTIVNIHVMGWYRQAPGKQRELVALIFSGGSADYADSVKGRFTISRDNAKNTVYLEMNSLKAEDTAVYYCAAEIGYYSGGTYYSSEAHWGQGTQVTVSS
notes: Class 2; also called IL17MS04G01; 04G1
With B1, the binding result was “no binding (tested: 250 nM)” in assay [1]; “no binding (tested: 250 nM)” in [2]; “no binding” in assay [3]; “no binding” in [4]; “no binding” in [5]; “no binding” in [6].

B2: 11A06 (VHH)
VHH: EVQLVESGGGLVQPGESLRLSCKASGFSLDYYALGWFRQAPGKEREGISCITSSDASAYYTDSVKGRFTISRDNSKNTVYLQMNSLKTEDTAIYYCAAALLTCSSYYDAYTYWGQGTQVTVSS
notes: Class 2
Regarding B2, the binding result in assay [1] was “no binding (tested: 250 nM)”; in [2], “no binding (tested: 250 nM)”; in [3], “no binding”; in [4] it was “no binding”; in assay [5], “no binding”; in [6] it was “no binding”.

B3: IL17MS3038 (VHH)
VHH: EVQLVESGGGLVQAGGSLRLSCAASGRTYDAVGWLRQAPGKEREFVAAISGSGDDTYYADSVKGRFTISKDNAGITMYLQMNSLKPEDTAVYYCATRRGLYYVWDSNDYENWGQGTQVTVSS
notes: variant of IL17MS13E02; Kabat numbering
As to B3, the “IC50 fold difference vs WT” value in assay [7] amounted to 3.2 fold. The values for the koff in [8], in [9] and in assay [10] were 0.0101 s⁻¹, 0.000225 s⁻¹ and 6.82e-05 s⁻¹, respectively.

B4: IL17MS3039 (VHH)
VHH: EVQLVESGGGLVQAGGSLRLSCAASGRTYDAMGWLRQAPGKEREFVAAISGSGDDTYYADSVKGRFTISKDNAGITVYLQMNSLKPEDTAVYYCATRRGLYYVWDSNDYENWGQGTQVTVSS
notes: as for B3
With B4, the “IC50 fold difference vs WT” value in assay [7] was found to be 1.25 fold. Further, the koff in assay [8] is 0.00515 s⁻¹; in assay [9] it was 0.00021 s⁻¹; in assay [10] it was 4.03e-05 s⁻¹.

B5: 11C08 (VHH)
VHH: EVQLVESGGGLVQAGGSLRLSCAASGVIFRLNAMGWYRAAPGKQRELVAIIVNGGSTNYADSVKGRFTISRDSAKNAVYLQMNSLKPEDTAVYYCYYNIPGDVYWGQGTQVTVSS
notes: Class 4
In the case of B5, the binding result is “no binding (tested: 250 nM)” in [11]; “no binding (tested: 250 nM)” in [12]; “no binding (tested: 250 nM)” in assay [1]; “no binding (tested: 250 nM)” in assay [2]; “no binding” in assay [3]; “no binding” in assay [4]. The binding result in assay [5] and in assay [6] was “no binding” in each case.

B6: 09G10 (VHH)
VHH: EVQLVESGGGLVQAGGSLRLSCAASDSVFTAKAVGWYRQPPGLQREWVAIITSGGKTNYADSSVKGRFTVSVDKVKNTVTLQMNSLKPEDTAVYYCYAQWMGRDYWGQGTQVTVSS
notes: Class 2
Regarding B6, the binding result in [1] is on record as “no binding (tested: 250 nM)”; in assay [2], “no binding (tested: 250 nM)”; in [3] it was “no binding”; in assay [4] it was “no binding”; in [5] it was “no binding”; in assay [6] it was “no binding”.

B7: 03C07 (VHH)
VHH: EVQLVESGGGLVQAGGSLRLSCAASGFTFDDYAIGWFRQAPGKEREAVSCFSSSDGSIYYADSVKGRFTISSDNAKNTVYLQMNSLKPEDTAVYYCAGGGGSYYYTQLNYCYDMDYWGKGTQVTVSS
notes: Class 2
B7: the binding result in assay [1] is reported as “no binding (tested: 250 nM)”; in [2], “no binding (tested: 250 nM)”; in assay [3], “no binding”; in assay [4], “no binding”; in assay [5] it was “no binding”; in [6] it was “no binding”.

B8: 04B09 (VHH)
VHH: EVQLVESGGGLVQPGGSLRLSCAASGFTLGYYAIGWFRQAPGKEREGVSCDSSSDGDTYYANSVKGRFTISTDNGKNTVYLQMNSLKPEDTAVYYCATCTDWNYDYWGQGTQVTVSS
notes: Class 2; also called 04B9
For B8, the binding result is reported as “no binding (tested: 250 nM)” in assay [1]; “no binding (tested: 250 nM)” in [2]; “no binding” in assay [3]; “no binding” in assay [4]; “no binding” in assay [5]; “no binding” in assay [6].

B9: 02A08 (VHH)
VHH: EVQLVESGGGVVQPGGSLRLSCADSERSFSFNAMGWFRQAPGKEREFVAAISATGDDTYYADSVKGRFAISRDTARNTVYLQMNSLKPEDTAVYYCGARVNFDGTVSYTNDYAYWGQGTQVTVSS
notes: Class 2
Turning to B9, the binding result in assay [1] is given as “no binding (tested: 250 nM)”; in [2] it was “no binding (tested: 250 nM)”; in assay [3], “no binding”; in assay [4], “no binding”; in [5], “no binding”; in assay [6], “no binding”.

B10: 13B03 (VHH)
VHH: EVQLVESGGGSVQAGDSLRLSCAASGRANSINWFGWFRQTPGKEREFVAGIRWSDAYTEYANSVKGRFTISRDNAKNTVDLQMDSLKPEDTAVYYCVLDLSTVRYWGQGTQVTVSS
notes: Class 4; also called IL17MS13B03
For B10, the binding result in assay [11] is given as “no binding (tested: 250 nM)”; in assay [12] it was “no binding (tested: 250 nM)”; in assay [1], “no binding (tested: 250 nM)”; in [2] it was “no binding (tested: 250 nM)”; in assay [3] it was “no binding”; in [4], “no binding”. In addition, the binding result in [5] and in assay [6] was “no binding” in each case.

B11: 01A01 (VHH)
VHH: EVQLVESGGGLVQAGGSLRLSCAASGFTFDDYDIGWFRQAPGKEREGVSCFTSSDGRTFYADSVKGRFTVSADNAKNTVYLQMNSLEPEDTAVYFCAAVNTFDESAYAAFACYDVVRWGQGTQVTVSS
notes: Class 4
As to B11, the binding result in assay [11] is on record as “no binding (tested: 250 nM)”; in [12] it was “no binding (tested: 250 nM)”; in assay [1], “no binding (tested: 250 nM)”; in assay [2] it was “no binding (tested: 250 nM)”; in assay [3], “no binding”; in assay [4], “no binding”. The binding result in assay [5] and in assay [6] was “no binding” throughout.

A word on the koff: it is a measure of how fast the partners let go of each other. Low readings indicate a long-lived complex, high ones a short-lived complex.
